Laboratory results from paper PMC7528652, “Xrn1p acts at multiple steps in the budding-yeast RNAi pathway to enhance the efficiency of silencing”.

Target: T1, Ago1p (WT) (Naumovozyma castellii, UniProt D5SHI8 2-1299)
T1 sequence: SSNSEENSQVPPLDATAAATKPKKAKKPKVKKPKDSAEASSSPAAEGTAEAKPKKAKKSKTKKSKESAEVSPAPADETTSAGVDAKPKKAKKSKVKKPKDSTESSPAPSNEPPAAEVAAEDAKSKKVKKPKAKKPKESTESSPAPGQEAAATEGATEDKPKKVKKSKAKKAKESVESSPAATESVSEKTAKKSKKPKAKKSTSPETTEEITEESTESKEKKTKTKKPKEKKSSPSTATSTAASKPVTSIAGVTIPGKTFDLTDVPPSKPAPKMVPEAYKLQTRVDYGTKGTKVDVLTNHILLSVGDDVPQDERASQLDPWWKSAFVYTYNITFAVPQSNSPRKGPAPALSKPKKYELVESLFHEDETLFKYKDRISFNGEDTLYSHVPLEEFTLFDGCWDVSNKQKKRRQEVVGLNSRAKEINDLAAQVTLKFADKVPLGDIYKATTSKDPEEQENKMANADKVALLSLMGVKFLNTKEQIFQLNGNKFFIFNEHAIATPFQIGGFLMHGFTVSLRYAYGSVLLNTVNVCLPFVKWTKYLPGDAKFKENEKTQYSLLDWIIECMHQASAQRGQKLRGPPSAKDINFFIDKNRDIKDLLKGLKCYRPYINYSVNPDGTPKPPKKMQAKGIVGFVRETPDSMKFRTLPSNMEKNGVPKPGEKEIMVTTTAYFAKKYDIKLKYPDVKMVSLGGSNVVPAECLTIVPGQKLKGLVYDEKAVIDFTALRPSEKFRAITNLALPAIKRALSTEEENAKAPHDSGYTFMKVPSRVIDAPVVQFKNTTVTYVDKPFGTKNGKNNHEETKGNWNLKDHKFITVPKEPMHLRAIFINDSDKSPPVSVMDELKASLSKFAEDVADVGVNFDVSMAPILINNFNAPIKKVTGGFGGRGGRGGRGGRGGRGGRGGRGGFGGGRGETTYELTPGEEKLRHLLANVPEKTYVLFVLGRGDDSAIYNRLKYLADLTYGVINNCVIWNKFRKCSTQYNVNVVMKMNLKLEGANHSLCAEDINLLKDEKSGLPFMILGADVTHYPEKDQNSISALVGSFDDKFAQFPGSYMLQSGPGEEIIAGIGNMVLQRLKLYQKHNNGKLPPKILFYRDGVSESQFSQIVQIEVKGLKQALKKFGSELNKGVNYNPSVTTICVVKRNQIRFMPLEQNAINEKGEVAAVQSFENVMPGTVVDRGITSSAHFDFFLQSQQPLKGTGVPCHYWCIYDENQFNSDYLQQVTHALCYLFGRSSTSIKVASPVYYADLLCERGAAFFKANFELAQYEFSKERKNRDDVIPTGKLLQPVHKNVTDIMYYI
Assay: filter binding (nitrocellulose-nylon); preincubated with 200 nM WT Xrn1p: bound siRNA enhanced; 50 mM Hepes pH 7.6, 300 mM potassium glutamate, 10 mM NaCl, 5 mM Mg acetate, 1 mM EGTA, 1 mM EDTA, 10% glycerol, 0.01% NP-40, 5 mM DTT, 30 C
Conditions: protein: recombinant; tags: N-terminal 3xFLAG-SUMO-TEV in expression construct; tag state after purification not in material; label: 32P 5' end of guide strand (S68); 21 bp, 2 nt 3' overhangs on both strands

B1: miR-20a siRNA duplex (dsRNA)
RNA 1: UAAAGUGCUUAUAGUGCAGGUAG
RNA 2: ACCUGCACUAUAAGCACUUUAAG
B1: binds.
